Experiments:
[1] = target: T1, Human CLEC12A-His (human, UniProt Q5QGZ9 65-265); test: cell-based or functional assay
T1 sequence: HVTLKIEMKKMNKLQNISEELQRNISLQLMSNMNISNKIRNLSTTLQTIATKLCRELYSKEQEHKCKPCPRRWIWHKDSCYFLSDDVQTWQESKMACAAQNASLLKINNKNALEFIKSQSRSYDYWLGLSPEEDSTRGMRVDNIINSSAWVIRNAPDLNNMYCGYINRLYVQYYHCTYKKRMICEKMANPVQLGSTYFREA

[2] = target: T1, Human CLEC12A-His; test: SPR Biacore 8K 37 C; TriNKET captured on anti-hFc chip, hCLEC12A-His as analyte; two-state fit, kd2
[3] = target: T1, Human CLEC12A-His; test: SPR Biacore 8K 37 C; TriNKET captured on anti-hFc chip, hCLEC12A-His as analyte; two-state fit; two-state fit
[4] = target: T1, Human CLEC12A-His; test: SPR Biacore 8K 37 C; TriNKET captured on anti-hFc chip, hCLEC12A-His as analyte; two-state fit, kd1; two-state fit; kd1
[5] = target: T1, Human CLEC12A-His; test: SPR Biacore 8K 37 C; TriNKET captured on anti-hFc chip, hCLEC12A-His as analyte; two-state fit, ka1 only; two-state fit; ka1 only

koff [2]: 0.000949 s⁻¹
Kd [3]: 2.41 nM
koff [4]: 0.0157 s⁻¹
kon [5]: 1.63e+06 M⁻¹ s⁻¹
B1: AB0053 (bispecific antibody)
chain 1: QLQLQESGPGLVKPSETLSLTCTVSGFSLTNYGLHWIRQPPGKCLEWIGVIWSGGKTDYNPSLKSRVTISKDTSKNQFSLKLSSVQAADTAVYYCAKYDYDDALDYWGQGTLVTVSSGGGGSGGGGSGGGGSGGGGSDIQMTQSPSSLSASVGDRVTITCHASQNINFWLSWYQQKPGKAPKLLIYEASNLHTGVPSRFSGSGSGTRFTLTISSLQPEDIATYYCQQSHSYPLTFGCGTKLEIKGSDKTHTCPPCPAPELLGGPSVFLFPPKPKDTLMISRTPEVTCVVVDVSHEDPEVKFNWYVDGVEVHNAKTKPREEQYNSTYRVVSVLTVLHQDWLNGKEYKCKVSNKALPAPIEKTISKAKGQPREPRVYTLPPCRDELTKNQVSLTCLVKGFYPSDIAVEWESNGQPENNYKTTPPVLVSDGSFTLYSKLTVDKSRWQQGNVFSCSVMHEALHNHYTQKSLSLSPG
chain 2: EVQLVESGGGLVKPGGSLRLSCAASGFTFSSYSMNWVRQAPGKGLEWVSSISSSSSYIYYADSVKGRFTISRDNAKNSLYLQMNSLRAEDTAVYYCARGAPIGAAAGWFDPWGQGTLVTVSSASTKGPSVFPLAPSSKSTSGGTAALGCLVKDYFPEPVTVSWNSGALTSGVHTFPAVLQSSGLYSLSSVVTVPSSSLGTQTYICNVNHKPSNTKVDKKVEPKSCDKTHTCPPCPAPELLGGPSVFLFPPKPKDTLMISRTPEVTCVVVDVSHEDPEVKFNWYVDGVEVHNAKTKPREEQYNSTYRVVSVLTVLHQDWLNGKEYKCKVSNKALPAPIEKTISKAKGQPREPQVCTLPPSRDELTENQVSLTCLVKGFYPSDIAVEWESNGQPENNYKTTPPVLDSDGSFFLYSWLTVDKSRWQQGNVFSCSVMHEALHNHYTQKSLSLSPG
chain 3: DIQMTQSPSSVSASVGDRVTITCRASQGISSWLAWYQQKPGKAPKLLIYAASSLQSGVPSRFSGSGSGTDFTLTISSLQPEDFATYYCQQGVSFPRTFGGGTKVEIKRTVAAPSVFIFPPSDEQLKSGTASVVCLLNNFYPREAKVQWKVDNALQSGNSQESVTEQDSKDSTYSLSSTLTLSKADYEKHKVYACEVTHQGLSSPVTKSFNRGEC
EC50 (nM), KHYG-1-CD16aV cytotoxicity assay, PL-21 cells [1]: 0.39 nM

Source: patent publication US20220119534A1 (DRAGONFLY THERAPEUTICS, published 2022)
